From patent US20160264649A1

How the values were obtained:
Assay in all cases: cell-based or functional assay
[1] = target: HIV-1 MGRM-D-016 Env (HIV-1)
[2] = target: HIV-1 CAAN.A2 (Acute) Env on pseudovirus (HIV-1)
HIV-1 APV-17 Env (HIV-1) = target: HIV-1 APV-17 Env (HIV-1)
[3] = target: HIV-1 MGRM-D-028 Env (HIV-1)
[4] = target: HIV-1 MGRM-D-003 Env (HIV-1)
[5] = target: HIV-1 MGRM-AE-006 Env (HIV-1)
[6] = target: HIV-1 93TH305 Env on pseudovirus (HIV-1)
[7] = target: HIV-1 MGRM-AG-008 Env (HIV-1)
[8] = target: HIV-1 92BR020 Env (HIV-1)
[9] = target: HIV-1 MGRM-AG-001 Env (HIV-1)
[10] = target: HIV-1 MGRM-AG-003 Env (HIV-1)
[11] = target: HIV-1 MGRM-D-005 Env (HIV-1)
HIV-1 JRCSF Env (HIV-1) = HIV-1 JRCSF Env (HIV-1) (UniProt P20871)
[12] = target: HIV-1 92UG001 Env (HIV-1)
[13] = target: HIV-1 MGRM-C-013 Env on pseudovirus (HIV-1)
[14] = target: HIV-1 MGRM-Chronic-B-008 Env on pseudovirus (HIV-1)
[15] = target: HIV-1 MGRM-D-022 Env (HIV-1)
[16] = target: HIV-1 MGRM-AE-002 Env (HIV-1)
[17] = target: HIV-1 MGRM-Chronic-B-003 Env on pseudovirus (HIV-1)
[18] = target: HIV-1 LAVI_C22 Env on pseudovirus (HIV-1)
[19] = target: HIV-1 MGRM-AE-003 Env (HIV-1)
[20] = target: HIV-1 MGRM-Chronic-B-001 Env on pseudovirus (HIV-1)
[21] = target: HIV-1 MGRM-F1-016 Env (HIV-1)
[22] = target: HIV-1 92BR020 Env on pseudovirus (HIV-1)
[23] = target: HIV-1 MGRM-AG-006 Env (HIV-1)
[24] = target: HIV-1 MGRM-Chronic-B-023 Env on pseudovirus (HIV-1)
[25] = target: HIV-1 MGRM-Chronic-B-011 Env on pseudovirus (HIV-1)
[26] = target: HIV-1 MGRM-AE-001 Env (HIV-1)
[27] = target: HIV-1 MGRM-D-021 Env (HIV-1)
[28] = target: HIV-1 MGRM-G-028 Env (HIV-1)
[29] = target: HIV-1 MGRM-D-002 Env (HIV-1)
[30] = target: HIV-1 MGRM-D-018 Env (HIV-1)
[31] = target: HIV-1 MGRM-G-006 Env (HIV-1)
[32] = target: HIV-1 THR0.18 (Acute) Env on pseudovirus (HIV-1)
[33] = target: HIV-1 MGRM-D-013 Env (HIV-1)
[34] = target: HIV-1 MGRM-Chronic-B-002 Env on pseudovirus (HIV-1)
[35] = target: HIV-1 94UG114 Env (HIV-1)
[36] = target: HIV-1 MGRM-G-019 Env (HIV-1)
[37] = target: HIV-1 VLGCB3 Env on pseudovirus (HIV-1)
[38] = target: HIV-1 APV_6 Env on pseudovirus (HIV-1)
[39] = target: HIV-1 MGRM-C-014 Env on pseudovirus (HIV-1)
[40] = target: HIV-1 APV_17 Env on pseudovirus (HIV-1)
[41] = target: HIV-1 MGRM-G-025 Env (HIV-1)
[42] = target: HIV-1 MGRM-Chronic-B-017 Env on pseudovirus (HIV-1)
[43] = target: HIV-1 MGRM-G-027 Env (HIV-1)
[44] = target: HIV-1 92UG046 Env (HIV-1)
[45] = target: HIV-1 MGRM-AG-013 Env (HIV-1)
[46] = target: HIV-1 MGRM-G-024 Env (HIV-1)
[47] = target: HIV-1 MGRM-A-010 Env (HIV-1)
[48] = target: HIV-1 92RW020 Env (HIV-1)
[49] = target: HIV-1 MGRM-A-013 Env (HIV-1)
[50] = target: HIV-1 MGRM-A-007 Env (HIV-1)

**Q.** What does the source list for 2G12 (antibody)?
**A.** IC50 (µg/ml), pseudovirus neutralization [1]: > 50 µg/mL; IC50 [2]: > 50 mg/L; neutralization IC50 (HIV-1 APV-17 Env (HIV-1)): > 50 mg/L; IC50 (µg/ml), pseudovirus neutralization [3]: > 50 µg/mL; IC50 (µg/ml), pseudovirus neutralization [4]: > 50 µg/mL; IC50 (µg/ml), pseudovirus neutralization [5]: > 50 µg/mL; IC50 [6]: 0.55 mg/L; IC50 (µg/ml), pseudovirus neutralization [7]: > 50 µg/mL; neutralization IC50 [8]: 2.26 mg/L; neutralization IC90 [8]: 24.1 mg/L; IC50 (µg/ml), pseudovirus neutralization [9]: 0.69 µg/mL; IC50 (µg/ml), pseudovirus neutralization [10]: > 50 µg/mL; IC50 (µg/ml), pseudovirus neutralization [11]: 25.7 µg/mL; neutralization IC50 (HIV-1 JRCSF Env (HIV-1)): 0.66 mg/L; neutralization IC90 (HIV-1 JRCSF Env (HIV-1)): 5.38 mg/L; IC50 (µg/ml), pseudovirus neutralization [12]: > 50 µg/mL; IC50 [13]: > 50 mg/L; IC50 [14]: 0.55 mg/L; IC50 (µg/ml), pseudovirus neutralization [15]: > 50 µg/mL; IC50 (µg/ml), pseudovirus neutralization [16]: > 50 µg/mL; IC50 [17]: 0.06 mg/L; IC50 [18]: > 50 mg/L; IC50 (µg/ml), pseudovirus neutralization [19]: > 50 µg/mL; IC50 [20]: 0.08 mg/L; IC50 (pseudovirus neutralization) [21]: > 50 mg/L; IC50 [22]: 4.84 mg/L; IC50 (µg/ml), pseudovirus neutralization [23]: 3.92 µg/mL; IC50 [24]: 0.16 mg/L; IC50 [25]: > 50 mg/L; IC50 (µg/ml), pseudovirus neutralization [26]: > 50 µg/mL; IC50 (µg/ml), pseudovirus neutralization [27]: 23 µg/mL; IC50 (µg/ml), pseudovirus neutralization [28]: 28.2 µg/mL; IC50 (µg/ml), pseudovirus neutralization [29]: > 50 µg/mL; IC50 (µg/ml), pseudovirus neutralization [30]: 0.12 µg/mL; IC50 (µg/ml), pseudovirus neutralization [31]: > 50 µg/mL; IC50 [32]: > 50 mg/L; IC50 (µg/ml), pseudovirus neutralization [33]: > 50 µg/mL; IC50 [34]: > 50 mg/L; IC50 (µg/ml), pseudovirus neutralization [35]: 13.9 µg/mL; IC50 (µg/ml), pseudovirus neutralization [36]: 31 µg/mL; IC50 [37]: 7.9 mg/L; IC50 [38]: 1.9 mg/L; IC50 [39]: > 50 mg/L; IC50 [40]: > 50 mg/L; IC50 (µg/ml), pseudovirus neutralization [41]: 31.9 µg/mL; IC50 [42]: > 50 mg/L; IC50 (µg/ml), pseudovirus neutralization [43]: > 50 µg/mL; IC50 (µg/ml), pseudovirus neutralization [44]: > 50 µg/mL; IC50 (µg/ml), pseudovirus neutralization [45]: 0.95 µg/mL; IC50 (µg/ml), pseudovirus neutralization [46]: > 50 µg/mL; neutralization IC50 [47]: 17 mg/L; neutralization IC50 [48]: 0.48 mg/L; neutralization IC50 [49]: > 50 mg/L; neutralization IC50 [50]: > 50 mg/L

**Q.** What does the source list for 4E10 (antibody)?
**A.** IC50 (µg/ml), pseudovirus neutralization [1]: 15.4 µg/mL; IC50 [2]: 17.9 mg/L; neutralization IC50 (HIV-1 APV-17 Env (HIV-1)): 5.1 mg/L; IC50 (µg/ml), pseudovirus neutralization [3]: 1.28 µg/mL; IC50 (µg/ml), pseudovirus neutralization [4]: 2.49 µg/mL; IC50 (µg/ml), pseudovirus neutralization [5]: 0.23 µg/mL; IC50 [6]: 12.3 mg/L; IC50 (µg/ml), pseudovirus neutralization [7]: 1.48 µg/mL; neutralization IC50 [8]: 41.4 mg/L; neutralization IC90 [8]: > 50 mg/L; IC50 (µg/ml), pseudovirus neutralization [9]: 1.12 µg/mL; IC50 (µg/ml), pseudovirus neutralization [10]: 0.64 µg/mL; IC50 (µg/ml), pseudovirus neutralization [11]: 35.2 µg/mL; neutralization IC50 (HIV-1 JRCSF Env (HIV-1)): 6 mg/L; neutralization IC90 (HIV-1 JRCSF Env (HIV-1)): 44.1 mg/L; IC50 (µg/ml), pseudovirus neutralization [12]: 13.6 µg/mL; IC50 [13]: 2.1 mg/L; IC50 [14]: 16.7 mg/L; IC50 (µg/ml), pseudovirus neutralization [15]: 16.9 µg/mL; IC50 (µg/ml), pseudovirus neutralization [16]: 0.55 µg/mL; IC50 [17]: 3.5 mg/L; IC50 [18]: 2.02 mg/L; IC50 (µg/ml), pseudovirus neutralization [19]: 0.34 µg/mL; IC50 [20]: 1.46 mg/L; IC50 (pseudovirus neutralization) [21]: 7.61 mg/L; IC50 [22]: > 50 mg/L; IC50 (µg/ml), pseudovirus neutralization [23]: 1.76 µg/mL; IC50 [24]: 27.9 mg/L; IC50 [25]: 1.07 mg/L; IC50 (µg/ml), pseudovirus neutralization [26]: 0.85 µg/mL; IC50 (µg/ml), pseudovirus neutralization [27]: 13.3 µg/mL; IC50 (µg/ml), pseudovirus neutralization [28]: 6.32 µg/mL; IC50 (µg/ml), pseudovirus neutralization [29]: 9.44 µg/mL; IC50 (µg/ml), pseudovirus neutralization [30]: 3.9 µg/mL; IC50 (µg/ml), pseudovirus neutralization [31]: 1.23 µg/mL; IC50 [32]: 4.68 mg/L; IC50 (µg/ml), pseudovirus neutralization [33]: 5.38 µg/mL; IC50 [34]: 2.19 mg/L; IC50 (µg/ml), pseudovirus neutralization [35]: 9.72 µg/mL; IC50 (µg/ml), pseudovirus neutralization [36]: 6.53 µg/mL; IC50 [37]: 5.76 mg/L; IC50 [38]: 1.1 mg/L; IC50 [39]: 2.48 mg/L; IC50 [40]: 10.5 mg/L; IC50 (µg/ml), pseudovirus neutralization [41]: 1.7 µg/mL; IC50 [42]: 2.77 mg/L; IC50 (µg/ml), pseudovirus neutralization [43]: 1.19 µg/mL; IC50 (µg/ml), pseudovirus neutralization [44]: 12.2 µg/mL; IC50 (µg/ml), pseudovirus neutralization [45]: 2.61 µg/mL; IC50 (µg/ml), pseudovirus neutralization [46]: 1.57 µg/mL; neutralization IC50 [47]: 14.4 mg/L; neutralization IC50 [48]: 4.54 mg/L; neutralization IC50 [49]: 1.46 mg/L; neutralization IC50 [50]: 1.82 mg/L
